From patent US20090123479A1 (published 2009)

T1: Endogenous human IL-23 (human, UniProt Q9NPF7 20-189; P29460 23-328)
T1 construct: also called endogenous human IL-23 from stimulated dendritic cells
T1 sequence 1: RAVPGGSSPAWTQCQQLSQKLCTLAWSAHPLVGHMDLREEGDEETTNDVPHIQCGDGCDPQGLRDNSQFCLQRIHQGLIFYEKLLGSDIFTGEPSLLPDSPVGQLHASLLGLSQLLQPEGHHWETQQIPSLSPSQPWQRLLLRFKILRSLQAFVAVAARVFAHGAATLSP
T1 sequence 2: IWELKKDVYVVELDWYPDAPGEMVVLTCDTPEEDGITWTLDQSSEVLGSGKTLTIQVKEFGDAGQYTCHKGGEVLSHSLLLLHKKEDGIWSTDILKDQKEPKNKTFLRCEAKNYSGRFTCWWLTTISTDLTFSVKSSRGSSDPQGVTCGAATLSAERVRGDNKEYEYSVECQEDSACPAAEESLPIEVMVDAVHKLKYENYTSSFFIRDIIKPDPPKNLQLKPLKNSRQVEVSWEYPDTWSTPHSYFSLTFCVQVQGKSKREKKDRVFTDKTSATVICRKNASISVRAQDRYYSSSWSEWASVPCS

T2: recombinant human IL-23 (human, UniProt Q9NPF7 20-189; P29460 23-328)
T2 construct: also called hIL-23
T2 sequence 1: T1 sequence 1
T2 sequence 2: T1 sequence 2

B1: A3M0 (antibody, human IgG1, kappa, V domains shown)
VH: QVQLVQSGAEVKKPGSSVKVSCKASGYTFTSYGITWVRQAPGQGLEWMGENYPRSGNTYYNEKFKGRVTITADKSTSTAYMELSSLRSEDTAVYYCARSEFISTVVAPYYYALDYWGQGTLVTVSS
VL: DIVMTQSPDSLAVSLGERATINCKASKKVTIFGSISALHWYQQKPGQPPKLIYNGAKLESGVPDRFSGSGSGTDFTLTISSLQAEDVAVYYCLQNKEVPYTFGGGTKVEIKR
notes: Full length chains; also called humanized mAb A3M0
B2: chimeric 8C92H6 HC1LC1 (antibody, V domains shown)
VH: QVQLQQSGAELARPGTSVKLSCKASGYTFTSYGITWVKQRTGQGLEWIGENYPRSGNTYYNEKFKGKATLTADKSSSTAYMELRSLTSEDSAVYFCARCEFISTVVAPYYYALDYWGQGTSLVTVS
VL: DIVLTQSPASLAVSLGQKATISCKASKKVTIFGSISALHWYQQKPGQPPKLIYNGAKLESGVSARFSDSGSQNRSPFGNQLSFTLTIDPVEADDAATYYCLQNKEVPYTFGGGTKLEIKR
notes: Murine variable regions with human constant regions; also called 8C92H6.HC1LC1 Chimera; 8C9 chimera

Columns and labels:
Endogenous human IL-23 = molecular target: T1, Endogenous human IL-23; assay: receptor inhibition ELISA: plate coated with recombinant human IL-23 receptor, endogenous human IL-23 at 3.5 ng/ml pre-incubated with titrated purified antibody, bound IL-23 detected with biotinylated anti-human IL-12; 1% BSA
Experimental: Recombinant human IL-23 Receptor (R&D systems 1400-IR-050) was coated onto 96 well plates at a concentration of 1 μg/ml. Endogenous human IL-23 at 3.5 ng/ml final, was pre incubated for 1 hour with a titration of purified antibody material before being added to the pre-coated plates. Detection was performed with biotinylated anti-human 1L12 (R&D systems BAF-219) followed by Streptavidin-HRP (GE Healthcare RPN 4401). This neutralisation ELISA used 1% BSA.

recombinant human IL-23 [1] = molecular target: T2, recombinant human IL-23; assay: SPR (Biacore T100), purified antibody captured on anti-human IgG, IL-23 analyte (different source of IL-23), 1:1 model
Experimental: Biacore analysis was carried out using a capture surface on a CM5 chip. Anti-human IgG (BR-1008-39) was used as the capturing agent. Anti-human IgG was coupled to a CM5 biosensor chip by primary amine coupling. Humanized antibody was captured on this immobilised surface and defined concentrations of IL-23 were passed over this captured surface. An injection of buffer over the captured antibody surface was used for double-referencing. […] T100 Biacore machine was used to generate the data; all runs were carried out at 25° C. using HBS EP. Data was analysed using the software inherent to the machine and fitted to the 1:1 model of binding. Tables 7 and 8 detail the IL-23 binding analysis carried out on the 8C92H6.HC1LC1 chimera and selected humanized variants in two separate experiments. Data presented in Tables 7 and 8 are from purified antibody samples. The data shown for the humanized variants is representative of a number of runs. The chimeric mAb (8C9H6.HC1LC1) was only run once in each experiment, so data shown for this mAb is from that one run.

recombinant human IL-23 [2] = molecular target: T2, recombinant human IL-23; assay: IL-23/IL-23R inhibition ELISA (first protocol, OD490): plate coated with human IL23R Fc chimera, antibody pre-incubated with constant human IL-23, bound IL-23 detected with biotinylated anti-human IL-12; tissue culture supernatant
Experimental: (§1) Chimeric and humanized mAbs were assessed for their ability to neutralise human IL-23 binding to human IL-23 receptor, and cyno IL23 binding to human IL23 receptor. Plates were coated with human IL23R Fc chimera at 1 μg/diluent (bicarbonate buffer). 50 μl/well of this mixture was incubated overnight at 4° C. The plates were then washed twice with Tris Buffered Saline with 0.05% Tween 20 (TBST). Plates were blocked with 1% BSA TBST 100 μl/well for a minimum of 1 hour at room temperature. The plates were then washed twice with Tris Buffered Saline with 0.05% Tween 20 (TBST). Various concentrations of antibody were incubated in a separate plate with a constant concentration of IL-23 for 1 hour at room temperature. 50 ul of each mixture were transferred to the assay plate and incubated at RT for 1 hr. They were then washed twice with Tris Buffered Saline with 0.05% Tween 20 (TBST). Bound IL23 was detected by anti human 1L12 Biotin labelled Ab (R&D systems BAF219) diluted to 100 ng/ml in 1% BSA TBST. 50 μl/well of the biotinylated antibody was added and incubated at RT for 1 hour. The plates were then washed twice with Tris Buffered Saline with 0.05% Tween 20 (TBST). ExtrAvidin-Peroxidase (Sigma E2886) was diluted 1/1000 in 1% BSA TBST, 50 μl/well was added to the plates. […] The plate was read at OD490 nm using the SOftmaxPRO versamax plate reader.

recombinant human IL-23 [3] = molecular target: T2, recombinant human IL-23; assay: SPR (Biacore T100), transient material captured on Protein A or anti-human IgG, IL-23 analyte at 256, 64, 16, 4, 1 nM
Experimental: Protein A or an anti-human IgG (Biacore BR-1008-39) was immobilised on a Biacore CM5 chip by primary amine coupling in accordance with the manufacturer's instructions. Anti IL-23 antibodies were captured on this surface and after a period of stabilisation, […] was passed over the antibody captured surface and a binding sensorgram was obtained. […] All runs were double referenced with a buffer injection over the captured antibody surface. Data was analysed using the 1:1 model using the software inherent to the Biacore 3000 or T100 depending upon which machine was used to generate kinetics. Analysis was carried out at 25° C. using HBS-EP buffer. Data presented in Tables 3-6 are on tissue culture supernatants of CHO cells transiently expressing the antibody of interest unless otherwise indicated. Data was generated using concentrations of IL-23 (256, 64, 16, 4, 1 and 0.25 nM) The data shown for the humanized variants is representative of a number of runs, The chimeric mAb (8C9H6.HC1LC1) was only run once in each experiment, so data shown for this mAb is from that one run, […]

recombinant human IL-23 [4] = molecular target: T2, recombinant human IL-23; assay: IL-23/IL-23R inhibition ELISA (first protocol, OD490): plate coated with human IL23R Fc chimera, antibody pre-incubated with constant human IL-23, bound IL-23 detected with biotinylated anti-human IL-12; purified antibody
Experimental: as §1

Binder | IC50 (read off the curve) (Endogenous human IL-23) | Kd (recombinant human IL-23 [1]) | koff (recombinant human IL-23 [1]) | kon (recombinant human IL-23 [1]) | IC50 (read off the curve) (recombinant human IL-23 [2]) | Kd (recombinant human IL-23 [3]) | koff (recombinant human IL-23 [3]) | kon (recombinant human IL-23 [3]) | IC50 (read off the curve) (recombinant human IL-23 [4])
B1 | ~0.005 µg/mL | 190 pM | 0.00024 s⁻¹ | 1.27e+06 M⁻¹ s⁻¹ |  |  |  |  | 
B2 | ~0.1 µg/mL | 364 pM | 0.000337 s⁻¹ | 925000 M⁻¹ s⁻¹ | ~0.006 µg/mL | 1800 pM | 0.00038 s⁻¹ | 210000 M⁻¹ s⁻¹ | ~0.08 µg/mL
